We go through 6 molecules from patent US20220073617A1 (Five Prime, published 2022).

The target of assay [1] is T1, human VISTA-Fc (hVISTA extracellular domain, amino acids 33-194 of SEQ ID NO: 1, linked to an Fc domain) (human, UniProt Q9H7M9 33-194).
T1 construct: also called WT VISTA; hVISTAFc
T1 sequence: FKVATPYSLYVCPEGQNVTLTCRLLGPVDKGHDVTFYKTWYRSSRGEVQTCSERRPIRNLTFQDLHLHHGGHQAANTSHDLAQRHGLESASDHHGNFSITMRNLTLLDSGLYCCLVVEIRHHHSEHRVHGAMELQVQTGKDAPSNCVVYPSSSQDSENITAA
Description: BLI. (In general: In BLI a coated tip is dipped into the sample, and binding shifts an interference pattern.)

For assay [2], the target named is T2, monovalent hVISTA-ECD (amino acids 32-193 of SEQ ID NO: 1 with a 7xHis tail) (human, UniProt Q9H7M9 33-193).
T2 construct: analyte of the SPR assays; also called huVISTA-His; hVISTA-His
In words: SPR 37C.

In assay [3] the target is T3, cyno VISTA-ECD (His tag) (cynomolgus macaque, UniProt Q9H7M9 33-193 (human entry)).
T3 construct: also called cyVISTA-His
T3 chain: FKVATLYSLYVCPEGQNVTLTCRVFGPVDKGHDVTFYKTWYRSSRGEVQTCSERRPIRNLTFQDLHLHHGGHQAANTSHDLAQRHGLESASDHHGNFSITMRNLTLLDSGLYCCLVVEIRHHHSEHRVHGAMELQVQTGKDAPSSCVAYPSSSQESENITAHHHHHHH
In words: SPR 37C.

The target in assay [4] is T2, monovalent hVISTA-ECD (amino acids …). In words: SPR 37C pH 6.0.
For assay [5], the target named is T3, cyno VISTA-ECD (His tag). Description: SPR 37C pH 6.0.
Assay [6] deals with T2, monovalent hVISTA-ECD (amino acids …). Description: SPR 37C pH 7.4.
Assay [7] deals with T3, cyno VISTA-ECD (His tag). In words: SPR 37C pH 7.4.
The target of assay [8] is T4, avidin (ThermoFisher Scientific catalog #21128) (UniProt P02701 25-152). Description: SPR 25C pH 6.0 and 7.4. On the procedure: (§1) The binding specificity of the '029, '761 and '767 clones to VISTA and to other high pI proteins was evaluated by SPR at neutral and acidic pH using a Biacore® T100 instrument (GE Healthcare). Protein A (ThermoFisher Scientific catalog #21181) was diluted to 20 ug/ml in 10 mM sodium acetate pH 4.5 and immobilized onto flow cells of a CM3 biosensor following the manufacturer's amine coupling protocol (GE Healthcare), targeting 800 RU immobilization density of Protein A per flow cell. SPR experiments were conducted at 25° C. using PBST (137 mM sodium chloride, 2.7 mM potassium chloride, 10 mM phosphate buffer, 0.05% Tween 20) running buffer at pH 7.4 and 6.0. Antibodies (formatted as IgG1.3 antibodies) were diluted to 50 nM in PBST pH 7.4, and were captured across active biosensor flow cells at 5 ul/min for 60 seconds. […] Two 15 second injections of 10 mM glycine pH 1.5 were used to regenerate the Protein A capture surface between assay cycles. Reference flow cell and 0 nM blank-subtracted sensorgrams were inspected using Biacore® T200 Evaluation Software v.2.0. The results are shown in […]
T4 sequence (P02701 25-152 limits assumed): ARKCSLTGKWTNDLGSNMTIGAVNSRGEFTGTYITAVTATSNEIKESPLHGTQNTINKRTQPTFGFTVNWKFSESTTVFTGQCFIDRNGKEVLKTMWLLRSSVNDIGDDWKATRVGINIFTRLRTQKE

Assay [9] addresses BSA (Calbiochem catalog #126593) (UniProt P02769 25-607). In words: SPR 25C pH 6.0 and 7.4. The method, then: as §1
For assay [10], the target named is T2, monovalent hVISTA-ECD (amino acids …). In words: SPR 37C. On the procedure:
For this assay, '029, '761 and '767 were reformatted as hIgG1f isotype and were expressed as both standard hIgG1f and in hIgG1f afucosylated formats to compare against the hIgG1.3f Fc. An SPR kinetics assay was conducted to measure koff and KD binding affinity measurements for VISTA Abs at acidic and physiological pH using a Biacore® T100 instrument (GE Healthcare). Protein A (ThermoFisher Scientific catalog #21181) was diluted to 20 μg/ml in 10 mM sodium acetate pH 4.5 and immobilized onto flow cells of a CM5 biosensor following the manufacturer's amine coupling protocol (GE Healthcare), targeting 2,000 RU immobilization density of Protein A per flow cell. […] Antibodies were diluted to 25 nM in PBST pH 7.4, and were captured across active biosensor flow cells at 5 ul/min for 45 seconds. […] Two 15 second injections of 10 mM glycine pH 1.5 were used to regenerate the Protein A capture surface between assay cycles. Rate constants ka (kₒₙ) and kd (koff) were derived from reference flow cell and 0 nM blank-subtracted sensorgrams, and were fit to a 1:1 binding model in Biacore® T200 Evaluation Software v.2.0. The affinity constant, KD was calculated as the ratio of rate constants koff/kₒₙ for each VISTA antibody. Ratios of koff and KD at pH 7.4/pH 6.0 were calculated to compare off-rate and affinity improvement at acidic pH relative to physiological pH.
The source holds these as a separate data set.

Assay [11] addresses T5, human VISTA on cells (human monocytes, AML3 cells, 293T/HEK293 cells expressing full-length human VISTA) (human, UniProt Q9H7M9 33-311).
T5 sequence: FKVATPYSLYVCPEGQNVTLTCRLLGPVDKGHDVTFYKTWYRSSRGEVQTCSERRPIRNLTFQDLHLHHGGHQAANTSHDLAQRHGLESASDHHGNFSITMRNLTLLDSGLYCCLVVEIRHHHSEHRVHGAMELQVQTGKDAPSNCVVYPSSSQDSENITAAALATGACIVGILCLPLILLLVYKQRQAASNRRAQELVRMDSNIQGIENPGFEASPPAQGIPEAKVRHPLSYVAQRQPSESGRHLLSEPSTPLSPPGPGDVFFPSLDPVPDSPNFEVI
In words: cell-based or functional assay.

The target of assay [12] is T2, monovalent hVISTA-ECD (amino acids …). In words: SPR 37C, 100 nM hVISTA-ECD, pH 7.4, 6.7, 6.0.
Assay [13] addresses T4, avidin (ThermoFisher Scientific catalog …). In words: SPR pH 6.0 and 7.4.
The target in assay [14] is T2, monovalent hVISTA-ECD (amino acids …). In words: SPR (FIG. 19C).

Chain of BSA (Calbiochem catalog #126593) (P02769 25-607 limits assumed): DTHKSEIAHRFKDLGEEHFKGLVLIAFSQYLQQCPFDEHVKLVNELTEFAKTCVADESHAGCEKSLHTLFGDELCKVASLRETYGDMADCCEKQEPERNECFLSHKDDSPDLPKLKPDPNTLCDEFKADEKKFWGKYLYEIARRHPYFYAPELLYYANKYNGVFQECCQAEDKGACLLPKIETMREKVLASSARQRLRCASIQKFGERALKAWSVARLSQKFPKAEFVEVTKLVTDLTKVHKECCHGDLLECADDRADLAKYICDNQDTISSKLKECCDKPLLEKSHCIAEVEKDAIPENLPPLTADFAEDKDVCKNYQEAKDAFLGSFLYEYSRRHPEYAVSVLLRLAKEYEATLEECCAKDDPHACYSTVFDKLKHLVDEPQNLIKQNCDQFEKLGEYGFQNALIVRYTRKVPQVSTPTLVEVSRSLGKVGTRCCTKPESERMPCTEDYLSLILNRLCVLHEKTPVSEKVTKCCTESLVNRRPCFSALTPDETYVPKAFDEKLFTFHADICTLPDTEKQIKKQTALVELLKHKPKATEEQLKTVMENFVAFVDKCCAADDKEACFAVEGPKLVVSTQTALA

B1: P1-061029.IgG1.3 (antibody)
heavy: EVQLVESGGGLVQPGKSLRLSCAASGFTLDDYAMHWVRQAPGKGLEWVSGINWNSANIGYADSVKGRFTISRDNAKNSLYLQMNSLRTEDTALYYCAKVPGYSGGWIDAFDVWGQGTMVTVSSASTKGPSVFPLAPSSKSTSGGTAALGCLVKDYFPEPVTVSWNSGALTSGVHTFPAVLQSSGLYSLSSVVTVPSSSLGTQTYICNVNHKPSNTKVDKRVEPKSCDKTHTCPPCPAPEAEGAPSVFLFPPKPKDTLMISRTPEVTCVVVDVSHEDPEVKFNWYVDGVEVHNAKTKPREEQYNSTYRVVSVLTVLHQDWLNGKEYKCKVSNKALPAPIEKTISKAKGQPREPQVYTLPPSREEMTKNQVSLTCLVKGFYPSDIAVEWESNGQPENNYKTTPPVLDSDGSFFLYSKLTVDKSRWQQGNVFSCSVMHEALHNHYTQKSLSLSPG
light: not shown
notes: also called P1-061029 hIgG1.3f; parent
Consider B1, for which the binding result in assay [1] was “binds”; in assay [8], “no binding (tested: <=10 RU, 100-10 nM)”; in assay [9], “no binding (tested: <=10 RU, 100-10 nM)”. Besides, the “KD ratio (7.4/6)” value was 9.1 in [2] and 4.7 with cyno VISTA-ECD (His tag) [3]. In addition, the “kd ratio (7.4/6)” value (in assay [2]; with cyno VISTA-ECD (His tag) [3]) was 1.1 in each case. Moreover, the Kd (commonly a measure of binding affinity in units of concentration) worked out at 6.8 nM in [4], 10 nM in the assay with cyno VISTA-ECD (His tag) [5], 62 nM in assay [6] and 47 nM with cyno VISTA-ECD (His tag) [7]. Besides, the off-rate constant (koff) (as a rule, the rate constant with which the complex falls apart) stood at 0.0066 s⁻¹ in assay [4], 0.0062 s⁻¹ with cyno VISTA-ECD (His tag) [5], 0.0075 s⁻¹ in assay [6] and 0.0067 s⁻¹ in the assay with cyno VISTA-ECD (His tag) [7]. Moreover, the on-rate constant (kon) (in general, the rate constant with which the complex forms) in assay [4] was found to be 980000 M⁻¹ s⁻¹; in the assay with cyno VISTA-ECD (His tag) [5], 620000 M⁻¹ s⁻¹; in assay [6], 120000 M⁻¹ s⁻¹; in the assay with cyno VISTA-ECD (His tag) [7], 140000 M⁻¹ s⁻¹.

B2: P1-068761.IgG1.3 (antibody)
heavy: EVQLVESGGGLVQPGKSLRLSCAASGFTLEDEAMHWVRQAPGKGLEWVSGINWNSEEIGYADSVKGRFTISRDNAKNSLYLQMNSLRTEDTALYYCAKVPGYSHGWIDAEDVWGQGTMVTVSSASTKGPSVFPLAPSSKSTSGGTAALGCLVKDYFPEPVTVSWNSGALTSGVHTFPAVLQSSGLYSLSSVVTVPSSSLGTQTYICNVNHKPSNTKVDKRVEPKSCDKTHTCPPCPAPEAEGAPSVFLFPPKPKDTLMISRTPEVTCVVVDVSHEDPEVKFNWYVDGVEVHNAKTKPREEQYNSTYRVVSVLTVLHQDWLNGKEYKCKVSNKALPAPIEKTISKAKGQPREPQVYTLPPSREEMTKNQVSLTCLVKGFYPSDIAVEWESNGQPENNYKTTPPVLDSDGSFFLYSKLTVDKSRWQQGNVFSCSVMHEALHNHYTQKSLSLSPG
light: not shown
notes: also called P1-068761 hIgG1.3f
For B2, in assay [10], the “fold faster koff at pH 6.9 compared to pH 6.0” value is not below 10 fold, the “fold lower affinity at pH 6.45 compared to pH 6.0” value is not below 10 fold, the “fold lower affinity at pH 6.9 compared to pH 6.0” value is not below 100 fold and the “fold lower affinity at pH 7.4 compared to pH 6.0” value was not below 1000 fold. Further, in assay [10], the “fold weaker KD at pH 6.9 compared to pH 6.0” value is not below 100 fold, the “selectivity for pH 6 over pH 7.4 in KD” value was more than 2000 fold and the “selectivity for pH 6 over pH 7.4 in koff” value was more than 10 fold. In [2], the “KD ratio (7.4/6)” value amounted to 2120 and the “kd ratio (7.4/6)” value was 26.4. Moreover, in the assay with cyno VISTA-ECD (His tag) [3], the “KD ratio (7.4/6)” value was 696 and the “kd ratio (7.4/6)” value was 21.2. Moreover, in [4], the affinity, expressed as Kd, was 4.1 nM and the kon came out at 350000 M⁻¹ s⁻¹. Also, in the assay with cyno VISTA-ECD (His tag) [5], binding was put at a Kd of 7.9 nM, the koff worked out at 0.0017 s⁻¹ and the kon is 210000 M⁻¹ s⁻¹. Also, in [6], the Kd was found to be 8700 nM, the off-rate constant (koff) is 0.037 s⁻¹ and the kon was found to be 4300 M⁻¹ s⁻¹. Further, in the assay with cyno VISTA-ECD (His tag) [7], binding was put at a Kd of 5500 nM, the koff is 0.036 s⁻¹ and the kon worked out at 6500 M⁻¹ s⁻¹. Moreover, the binding result in assay [8] is “no binding (tested: <=10 RU, 100-10 nM)”. The binding result in assay [9] was “no binding (tested: <=10 RU, 100-10 nM)”.

B3: VISTA.5 (VISTA antibody 1, non-blocking antibody) (antibody, V domains shown)
VH: AVQLQESGPGLVRPSQSLSLTCTVTDYSITSDYAWNWIRQFPGSKLEWLGFIGYSGNTNYNPSLESRISITRHTSKNQFFLHLNSMTTEDTATYYCARSLYGGSHWYFDVWGAGTTVTVSS
VL: DIVLTQSPASLAVSLGQRATISCRGSESVEYYGTILMQWYQQKPGQPPKLLIYGASNVESGVPARFSGSGSGTDFSLNIHPVEEDDIAMYFCQQSRKVPWTFGGGTKLEIK
notes: also called VISTA mAb 1; mAb 1
In the case of B3, the “EC50, AML3 viability (Cell Titer Glo), endolysosome-dependent antibody drug conjugate killing assay” value in assay [11] came out at 0.485 µg/mL. In addition, the binding result in assay [12] is reported as “binds”.

B4: VISTA.4.IgG1.3 (antibody, V domains shown)
VH: QVQLVESGGGLVKPGGSLRLSCAASGFTFSDYYMSWIRQAPGKGLEWVSYISNSGSPIYYADSVKGRFTISRDNAKNSLYLQMNSLRAEDTAVYYCARDLPGWYFDLWGRGTLVTVSS
VL: EIVLTQSPATLSLSPGERATLSCRASQSVSSYLAWYQQKPGQAPRLLIYDASNRATGIPARFSASGSGTDFTLTISSLEPEDFAVYYCQQRNNWPRTFGQGTKVEIKR
notes: also called 41F11
For the molecule B4, the binding result in assay [13] is “no binding”.

B5: P1-072315-1 (41F11_VH_T28P/Y50W/S55E/L96E/Y100E VK_A64G) (antibody, V domains shown)
VH: QVQLVESGGGLVKPGGSLRLSCAASGFPFSDYYMSWIRQAPGKGLEWVSWISNSGEPIYYADSVKGRFTISRDNAKNSLYLQMNSLRAEDTAVYYCARDEPGWEFDLWGRGTLVTVSS
VL: EIVLTQSPATLSLSPGERATLSCRASQSVSSYLAWYQQKPGQAPRLLIYDASNRATGIPARFSGSGSGTDFTLTISSLEPEDFAVYYCQQRNNWPRTFGQGTKVEIK
As for B5, in assay [13], the binding result is on record as “no binding”.

B6: P1-070976 (41F11_VH_T28P/Y50W/S55E/D95H/L96E/P97E/Y100E; VK_A64G), IgG1.3 (antibody, V domains shown)
VH: QVQLVESGGGLVKPGGSLRLSCAASGFPFSDYYMSWIRQAPGKGLEWVSWISNSGEPIYYADSVKGRFTISRDNAKNSLYLQMNSLRAEDTAVYYCARHEEGWEFDLWGRGTLVTVSS
VL: EIVLTQSPATLSLSPGERATLSCRASQSVSSYLAWYQQKPGQAPRLLIYDASNRATGIPARFSGSGSGTDFTLTISSLEPEDFAVYYCQQRNNWPRTFGQGTKVEIKR
notes: also called acidic pH selective VISTA.4 progeny
With B6, the “fold higher affinity at pH 6.0 than at pH 7.4” value in [14] turned out to be 200 fold. The binding result in assay [13] was “no binding”.
